# Results published in publication PMC4585930.
# Target: GFP-CRN7 WT (UniProt Q55E54)
# Assay: pull-down, western blot band intensity
# Conditions: read off a plot
# Chain of UniProt Q55E54 (Q55E54 whole entry): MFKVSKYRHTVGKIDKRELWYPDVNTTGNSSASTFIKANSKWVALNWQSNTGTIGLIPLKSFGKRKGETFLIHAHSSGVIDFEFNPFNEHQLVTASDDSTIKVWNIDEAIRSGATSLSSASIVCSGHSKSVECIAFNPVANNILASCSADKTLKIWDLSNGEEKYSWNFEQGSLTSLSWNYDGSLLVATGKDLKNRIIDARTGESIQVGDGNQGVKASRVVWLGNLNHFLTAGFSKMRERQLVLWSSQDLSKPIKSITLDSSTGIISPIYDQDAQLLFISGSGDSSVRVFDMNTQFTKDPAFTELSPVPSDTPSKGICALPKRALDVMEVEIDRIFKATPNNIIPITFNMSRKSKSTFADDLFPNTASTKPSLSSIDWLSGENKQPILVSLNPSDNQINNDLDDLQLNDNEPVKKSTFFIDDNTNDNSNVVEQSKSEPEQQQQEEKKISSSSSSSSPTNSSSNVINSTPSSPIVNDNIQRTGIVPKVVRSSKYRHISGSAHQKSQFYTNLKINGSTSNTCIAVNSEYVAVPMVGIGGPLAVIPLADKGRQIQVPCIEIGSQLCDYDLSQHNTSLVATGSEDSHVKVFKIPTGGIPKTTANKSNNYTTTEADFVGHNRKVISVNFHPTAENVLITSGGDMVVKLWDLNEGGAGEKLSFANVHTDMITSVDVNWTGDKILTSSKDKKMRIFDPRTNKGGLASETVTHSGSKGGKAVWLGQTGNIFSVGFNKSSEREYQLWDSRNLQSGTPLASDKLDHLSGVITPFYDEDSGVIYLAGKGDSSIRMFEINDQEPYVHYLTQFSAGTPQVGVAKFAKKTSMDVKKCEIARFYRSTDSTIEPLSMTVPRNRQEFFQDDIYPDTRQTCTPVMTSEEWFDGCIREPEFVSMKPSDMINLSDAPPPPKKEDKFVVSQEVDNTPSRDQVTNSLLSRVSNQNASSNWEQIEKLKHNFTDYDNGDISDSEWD
substance,measurement,setting,value
GST-RacC (from UniProt P34149) D to A (Mut2),response (arbitrary units),"RacC Mut2 loaded with GDP, parent: est. 61",57
same,response (arbitrary units),"RacC Mut2 loaded with GTPγS, parent: est. 39",43
GST-RacC (from UniProt P34149) Y40K,response (arbitrary units),"RacC Mut3 loaded with GDP, parent: est. 61",64
same,response (arbitrary units),"RacC Mut3 loaded with GTPγS, parent: est. 39",36
GST-RacC (from UniProt P34149) EE to KK (Mut4),response (arbitrary units),"RacC Mut4 loaded with GDP, parent: est. 61",54
same,response (arbitrary units),"RacC Mut4 loaded with GTPγS, parent: est. 39",46
GST-RacC (from UniProt P34149) DD to QQ (Mut5),response (arbitrary units),"RacC Mut5 loaded with GDP, parent: est. 61",51
same,response (arbitrary units),"RacC Mut5 loaded with GTPγS, parent: est. 39",49
GST-RacC (from UniProt P34149) ED to KK (Mut1),response (arbitrary units),"RacC Mut1 loaded with GDP, parent: est. 61",52
same,response (arbitrary units),"RacC Mut1 loaded with GTPγS, parent: est. 39",48
